Experimental data: the supplement of paper PMC12042874
± gives the uncertainty stated by the source.

assay: amyloid nucleation score (Sup35N fusion, yeast selection) (log enrichment); library NNK3; higher = more nucleation; inactive = no reads after selection
How it was run: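 Nucleation score: DiMSum log enrichment of output over input reads, centred on the mode score of non-aggregating sequences. Only sequences with at least 100 input reads were kept. Reads came from Illumina sequencing of plasmid inserts before and after 7 days of growth at 30°C without adenine and uracil, in psi-negative yeast expressing Sup35N fused to peptides of 20 random codons after 24 hours of induction with 100 μM copper sulfate.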

**Q.** For EFALTIWCLGAALCIIKSLS, which amyloid nucleation score is on record?
**A.** Its amyloid nucleation score is “inactive”.

**Q.** With MWVQEYKTNNGYSLA as the substance, how does the amyloid nucleation score read?
**A.** Its amyloid nucleation score is “inactive”.

**Q.** For LLTVSLPMDGST, which amyloid nucleation score is on record?
**A.** The amyloid nucleation score was “inactive”.

**Q.** For RKVNHFNE, which amyloid nucleation score is on record?
**A.** The amyloid nucleation score was “inactive”.

**Q.** Which amyloid nucleation score does the source give for YFEYRPKMHHYSLCYMGEFS here?
**A.** The amyloid nucleation score was “inactive”.

**Q.** Which amyloid nucleation score does the source give for QWCCVTRFIGYSKGYGRKAP here?
**A.** Its amyloid nucleation score is “inactive”.

**Q.** With GVVKRQRLWTVGMNPKIEAW as the substance, how does the amyloid nucleation score read?
**A.** The amyloid nucleation score was “inactive”.

**Q.** Which amyloid nucleation score does the source give for CMFNGGDWNHNVRELGRQSS here?
**A.** The amyloid nucleation score was “inactive”.

**Q.** With RGNDLIVCCGDRMCFCNALS as the substance, how does the amyloid nucleation score read?
**A.** Its amyloid nucleation score is “inactive”.

**Q.** Which amyloid nucleation score does the source give for FFCSSTPKSWMCKQTL here?
**A.** Its amyloid nucleation score is “inactive”.

**Q.** With SNLHMILDGWEMCALHAAMG as the substance, how does the amyloid nucleation score read?
**A.** Its amyloid nucleation score is “inactive”.

**Q.** With WKFAGHEALWFLKIIEMLR as the substance, how does the amyloid nucleation score read?
**A.** Its amyloid nucleation score is “inactive”.

**Q.** For NINYTYLESVLIMGYMFREL, which amyloid nucleation score is on record?
**A.** Its amyloid nucleation score is 2.21 ± 0.095.

**Q.** With DLDCGTSDMLCCRLVCC as the substance, how does the amyloid nucleation score read?
**A.** The amyloid nucleation score was “inactive”.

**Q.** For LLHPYARVDMRVQ, which amyloid nucleation score is on record?
**A.** The amyloid nucleation score was “inactive”.

**Q.** With VEMGVLSGFK as the substance, how does the amyloid nucleation score read?
**A.** Its amyloid nucleation score is -0.288 ± 0.75.

**Q.** Which amyloid nucleation score does the source give for CYGFSK here?
**A.** The amyloid nucleation score was “inactive”.

**Q.** With YVSDD as the substance, how does the amyloid nucleation score read?
**A.** Its amyloid nucleation score is “inactive”.

**Q.** For MSFMTDLNPTFLFMLIG, which amyloid nucleation score is on record?
**A.** The amyloid nucleation score was “inactive”.

**Q.** With LRIGNVVCLKLSFSFNRYLW as the substance, how does the amyloid nucleation score read?
**A.** Its amyloid nucleation score is 0.352 ± 0.75.

**Q.** Which amyloid nucleation score does the source give for LSNGDAKTSRTASVRCLRYA here?
**A.** Its amyloid nucleation score is “inactive”.

**Q.** With EHNYVSTIGYSCRFEPGTRR as the substance, how does the amyloid nucleation score read?
**A.** The amyloid nucleation score was “inactive”.

**Q.** For SYWPVRSELQSVLLNSCGVR, which amyloid nucleation score is on record?
**A.** Its amyloid nucleation score is “inactive”.

**Q.** Which amyloid nucleation score does the source give for SAWVIIIMLARYVAIS here?
**A.** Its amyloid nucleation score is “inactive”.

**Q.** With TSQTLESQDLIFSGCHSGWL as the substance, how does the amyloid nucleation score read?
**A.** Its amyloid nucleation score is “inactive”.

**Q.** For SVFDKGESGRRYGGEV, which amyloid nucleation score is on record?
**A.** Its amyloid nucleation score is “inactive”.

**Q.** For CHRRLML, which amyloid nucleation score is on record?
**A.** Its amyloid nucleation score is “inactive”.

**Q.** For SSGLMLWFDWLLVWRGCRLR, which amyloid nucleation score is on record?
**A.** Its amyloid nucleation score is “inactive”.

**Q.** For GPNDLSMAFRTLYDQAVPYV, which amyloid nucleation score is on record?
**A.** The amyloid nucleation score was -0.521 ± 1.

**Q.** Which amyloid nucleation score does the source give for CKVHECHVPAG here?
**A.** Its amyloid nucleation score is “inactive”.

**Q.** Which amyloid nucleation score does the source give for TLDHEWGFLSEKATVL here?
**A.** Its amyloid nucleation score is “inactive”.

**Q.** For MNEGQSYYKVVITPELLAAR, which amyloid nucleation score is on record?
**A.** Its amyloid nucleation score is -0.545 ± 0.96.

**Q.** With FPICWLRVVDLALFKWMYNF as the substance, how does the amyloid nucleation score read?
**A.** Its amyloid nucleation score is “inactive”.

**Q.** With YRYCINVTKYHLLQ as the substance, how does the amyloid nucleation score read?
**A.** The amyloid nucleation score was “inactive”.

**Q.** Which amyloid nucleation score does the source give for WTNSSQHLSESLWYVDYCQG here?
**A.** The amyloid nucleation score was “inactive”.

**Q.** With MRYGKLDLSRVYLQCDRLGR as the substance, how does the amyloid nucleation score read?
**A.** Its amyloid nucleation score is “inactive”.

**Q.** Which amyloid nucleation score does the source give for LEREDGVHWLMEEWVWCVDW here?
**A.** Its amyloid nucleation score is “inactive”.

**Q.** Which amyloid nucleation score does the source give for LMRLLLNYWSITAIILL here?
**A.** The amyloid nucleation score was “inactive”.

**Q.** For MYQMSTVKRRRVGGSNDMCV, which amyloid nucleation score is on record?
**A.** The amyloid nucleation score was “inactive”.

**Q.** Which amyloid nucleation score does the source give for WAEFLCLSSSFFLDM here?
**A.** Its amyloid nucleation score is “inactive”.

**Q.** Which amyloid nucleation score does the source give for IKGLAPRFAVGLDNLMSESM here?
**A.** Its amyloid nucleation score is “inactive”.

**Q.** With SPRSFIILVGNGYISCSSVE as the substance, how does the amyloid nucleation score read?
**A.** Its amyloid nucleation score is 2.56 ± 0.073.

**Q.** For ELFDWTFLFPDSSINMWK, which amyloid nucleation score is on record?
**A.** The amyloid nucleation score was “inactive”.

**Q.** For CSPKPNKKAAMYKSAYNPGM, which amyloid nucleation score is on record?
**A.** Its amyloid nucleation score is 0.629 ± 0.17.

**Q.** With VLSIDTDYKFIGHASDYASI as the substance, how does the amyloid nucleation score read?
**A.** The amyloid nucleation score was 0.959 ± 0.16.

**Q.** Which amyloid nucleation score does the source give for FVMFAKASRGCTVSLCVYDV here?
**A.** The amyloid nucleation score was -0.37 ± 0.39.

**Q.** With VMDLLK as the substance, how does the amyloid nucleation score read?
**A.** The amyloid nucleation score was “inactive”.

**Q.** For FLLVMYT, which amyloid nucleation score is on record?
**A.** Its amyloid nucleation score is 0.167 ± 0.25.

**Q.** For SALPE, which amyloid nucleation score is on record?
**A.** Its amyloid nucleation score is “inactive”.

**Q.** With VCQGFSKFLRWSQVRFLSMA as the substance, how does the amyloid nucleation score read?
**A.** The amyloid nucleation score was -0.288 ± 1.4.

**Q.** For LREKND, which amyloid nucleation score is on record?
**A.** Its amyloid nucleation score is “inactive”.

**Q.** For SFICGINNELVK, which amyloid nucleation score is on record?
**A.** The amyloid nucleation score was “inactive”.

**Q.** For MWCMGNSVGSVWSRCTYMRY, which amyloid nucleation score is on record?
**A.** The amyloid nucleation score was “inactive”.

**Q.** With IFVLDASMVMSFYVSVDASS as the substance, how does the amyloid nucleation score read?
**A.** Its amyloid nucleation score is 0.989 ± 0.093.

**Q.** With CFCFLIM as the substance, how does the amyloid nucleation score read?
**A.** Its amyloid nucleation score is 1.05 ± 0.21.

**Q.** For FLVWDFRSERKRKKI, which amyloid nucleation score is on record?
**A.** Its amyloid nucleation score is “inactive”.

**Q.** With RNKVHRNG as the substance, how does the amyloid nucleation score read?
**A.** The amyloid nucleation score was “inactive”.

**Q.** For VWVLYGKITVPSPKARMGKT, which amyloid nucleation score is on record?
**A.** The amyloid nucleation score was -0.083 ± 1.1.

**Q.** With LSIYGDPAYCALFAYECLWL as the substance, how does the amyloid nucleation score read?
**A.** Its amyloid nucleation score is 1.93 ± 0.06.

**Q.** For RAVTSWYVVRWFIRYNTSNA, which amyloid nucleation score is on record?
**A.** Its amyloid nucleation score is “inactive”.

**Q.** Which amyloid nucleation score does the source give for NSNSYLGTNFILNQYVLCID here?
**A.** The amyloid nucleation score was “inactive”.

**Q.** For NNCYRMGFLCPTNRQTMEG, which amyloid nucleation score is on record?
**A.** The amyloid nucleation score was “inactive”.

**Q.** Which amyloid nucleation score does the source give for LTVLFTVCWVGTRAYGLIGG here?
**A.** The amyloid nucleation score was “inactive”.

**Q.** Which amyloid nucleation score does the source give for NVAAFGVAMPGMSV here?
**A.** Its amyloid nucleation score is “inactive”.

**Q.** With LPRLFVVDYPSQ as the substance, how does the amyloid nucleation score read?
**A.** The amyloid nucleation score was “inactive”.

**Q.** For HNSQLWLVPSVFTKRLCHIN, which amyloid nucleation score is on record?
**A.** The amyloid nucleation score was “inactive”.

**Q.** Which amyloid nucleation score does the source give for VSCRQLYQSIGGRKPDRRFI here?
**A.** The amyloid nucleation score was “inactive”.

**Q.** With RGYGAAHQRRCQRIRNYYKY as the substance, how does the amyloid nucleation score read?
**A.** The amyloid nucleation score was “inactive”.

**Q.** Which amyloid nucleation score does the source give for WIFENMSYIRKICQWCKSYV here?
**A.** Its amyloid nucleation score is “inactive”.

**Q.** For DLGLNYFESSRDPDGSLLYL, which amyloid nucleation score is on record?
**A.** Its amyloid nucleation score is “inactive”.

**Q.** With FTSQYIYDAIRRLRKMSIMS as the substance, how does the amyloid nucleation score read?
**A.** The amyloid nucleation score was “inactive”.

**Q.** With NSMRVKVRTLTVYISEFTVS as the substance, how does the amyloid nucleation score read?
**A.** The amyloid nucleation score was “inactive”.

**Q.** With SRQRIDYFMVRRSGSWSRQV as the substance, how does the amyloid nucleation score read?
**A.** Its amyloid nucleation score is “inactive”.

**Q.** Which amyloid nucleation score does the source give for DFHIKERG here?
**A.** Its amyloid nucleation score is “inactive”.

**Q.** For VVDLIFLSLF, which amyloid nucleation score is on record?
**A.** Its amyloid nucleation score is “inactive”.

**Q.** Which amyloid nucleation score does the source give for SQYIWFFSVVLSFFSSVSWC here?
**A.** The amyloid nucleation score was -0.021 ± 0.85.

**Q.** Which amyloid nucleation score does the source give for LMLANVNAA here?
**A.** The amyloid nucleation score was “inactive”.

**Q.** For KFGFLYPISCDVYGQDFLAL, which amyloid nucleation score is on record?
**A.** The amyloid nucleation score was “inactive”.

**Q.** With SLGYGDI as the substance, how does the amyloid nucleation score read?
**A.** Its amyloid nucleation score is “inactive”.
